Laboratory results reported in the DeepSol protein solubility set.

test: soluble on expression in E. coli; label from the status in PepcDB or PDB records

Q: Which “soluble on expression in E. coli” value does the source give for “MGSDKIHHHHHHMVNQNQWRQWGCKVIDIEKAALEHLYQFVDSDAFSQACELILQCKGKVIVMGMGKSGHIGNKISATLASTGTPAFFVHPGEASHGDLGALAKEDIILAISNSGESSEILTLLPVIQRMGVPVIAITGKPESNMAKLAKIHLCIQVPEEACPLGLAPTSSTTATLVMGDALAVALLQAKGFTQDDFALSHPGGSLGRKLLLKVSDVMHQDDRLPCVPHDICITEALYEISKKGLGMTAVVDANQCLVGIFTDGDLRRVIDAEVNLRTTPIEQVMTKNCVTTTAGILAAQALQVMESKNINGLIVVNEQQQPIGALNMLDMVKAGVI” here?
A: Its value is “not soluble”.

Q: For “MELTLQKYGSYEKFEQATGGSLLSKTRIWSHVRKYMVKEGCLGEIVVHLTEDLLSRASMTVVNGCPTLTINISTAREHWLEGMLRHEIGTHYFRGINNLQQPWNSWIGRKKHELKPNNPTEEGLASIHSVLFRKDPFLWRAALLYYTVYKASHMSFCELFKDIGKFVKDPNTRWDYCVRAKRGWTDTSEPGCFSKDQVYLDGVLQILRFRESIDFHLLTALGKVSYEDVDRLKELAVTENMRVPHFLHDHSRYMEHLERIMEVNELTDAELKNLI”, which “soluble on expression in E. coli” value is on record?
A: Its value is “not soluble”.

Q: With “MSNGRAVNGFLLDITGVLYNSIYKSDGVAVPKSAEAVNFLYQHSKVKFLSNAKGNSNRNVARRLQRLGINVREEDVITPAPVVAQYCRENKLRPHLFVRDDVLEYFDGIDTSSPNCVVMGEVEEGFSFDRINRAFRILIDMPKPLLITMGNGKFFQRVDGPCIDVGAFAAALKFSTNCEVLNIGKPSRFYFEQGMNALGMKPEEIVMVGDDLMSDVGGAQACGMRGVQVRTGKWRPDFEKMPVTPDLTADCLYDAVKLIADNGFRL” as the sequence, how does the “soluble on expression in E. coli” value read?
A: The value was “not soluble”.

Q: With “GPGSMLDAATGKSKGFGFVLFDEEEKGAKAYKALNRKMTRACGHSFTLVIYPSNHNGKIFTEESNALYIRNIPISIGQEKMERFLRTFGNLIYFAMREDHYGNPVWVVYAEYETVDDAKNALAKLHGNNTYFHGSVPILAKFEDSDDAKKERRRRRDGMQTHDRTAGAFFRHRSATTRTLDRFTPLPRR” as the sequence, how does the “soluble on expression in E. coli” value read?
A: Its value is “not soluble”.

Q: Which “soluble on expression in E. coli” value does the source give for “MRLFAINAGNFKLDGGAMFGVVPKSIWNKLNPADSNNLCTWATRCLLIENGKQLVLIDTGLGDKQDESFFRHYYRDTPQTWDTLLKPYGFHSSDITDVVLTHLHFDHVGGALEKKGDKIVPTFSNARYWSNTRHWDWAVEPNPREKASFLKDNLFPLQESGQLYFVDTQNLPFEWMDFIFVDGHTEQQMLPLITTPAEKKILYAADLLPSAGHIPMPYIMSYDVRPLVSMQEKERVFNQVLAEDWTVFLEHDLSNACISLQQTEKGIRLNNVFQISDFNLEHHHHHH” here?
A: Its value is “not soluble”.

Q: For “MNVLALDTSQRIRIGLRKGEDLFEISYTGEKKHAEILPVVVKKLLDELDLKVKDLDVVGVGIGPGGLTGLRVGIATVVGLVSPYDIPVAPLNSFEMTAKSCPADGVVLVARRARKGYHYCAVYLKDKGLNPLKEPSVVSDEELEEITKEFSPKIVLKDDLLISPAVLVEESERLFREKKTIHYYEIEPLYLQKSIAELNWEKKKRG”, which “soluble on expression in E. coli” value is on record?
A: The value was “not soluble”.

Q: With “MLIKLGTELTKEEYVTRYMRNFQKLLLLGDRPKVLTNREEQLLQYEKELCVLFYEQFIKKHHRAPDEATLDDQVKANFIERSKIFARSPLVMDEGNFTQAHIGQLKRLRELRMEDYLPDNYTHILQREEELARNYFRKHDDYPFGYECLCISRSREVVNQGLEKLLEGFYDSYQVYYRRYRKNG” as the sequence, how does the “soluble on expression in E. coli” value read?
A: The value was “not soluble”.

Q: With “MGHFSEKSGSLILRRSLFIVDAIYLKKFRKKTGLKQKEFALSSGLTLKSLRNYEQGKRKLTLEKYQEIKSHFGYLVENDSSRLQVMIDYVRITLKDVRDLEFFCRNFLHCAFKEFQPFESKLMNYNHLWKRGDIWIFDFADKHETGNFQITVQLSGRGCRQLELLMETEKFTWHDWLSYLRNSYRDDMNVTRFDIAIDELYLGKDRENEQFHLSDMISKYYRHELDFESLRTWNYIGGGSLNFSDMEEIEQNRQGISLYFGSRQSEMYFNFYEKRYEIAKQEGITVEEALEIFELWNRYEIRLSQSKANAAVDEFISGVPIGEISRGLIVSKIDVYDGKNEYGSFQADRKWQLMFGGVEPLKFVTKPEAYSIERTLRWLSDSVSPSLAMIREYDMIVDGDYLQTILNSGEVNERGEKILDSIKASLGIL” as the sequence, how does the “soluble on expression in E. coli” value read?
A: The value was “not soluble”.

Q: With “MSLKYKAIAAGLLAAHLLAHPISSLAETKKFPDVSDSAWSKDAIYYLVERNVINGMPDGNFMPYGNLTRAQAAKIIATAIGAKVDPNAKPSYNDAKNSWAASFIAAMEKENIIKGREPGVFDPEGKVTRAEMAAMLVRAYNLKSKVTGPVPTKFADLENHWGKEEVNILVELKLSLGTENGWKPNDSITREQAAQLTAQTDKFSKNSDRPVEEGHHHHHH” as the sequence, how does the “soluble on expression in E. coli” value read?
A: Its value is “soluble”.

Q: For “MKHLKFQSVFDIIGPVMIGPSSSHTAGAVRIGKVVHSIFGEPSEVTFHLYNSFAKTYQGHGTDKALVAGILGMDTDNPDIKNSLEIAHQKGIKIYWDILKDSNSPHPNTAKITVKNGDRSMSITGVSIGGGNIQVTELNGFSVSLTMNTPTLIIVHQDIPGMIAKVTDILSDFNINIAQMNVTRESAGEKAIMIIEVDSRDCQQAVKKIEAIPHLHNVNFFD”, which “soluble on expression in E. coli” value is on record?
A: The value was “soluble”.

Q: For “MGSDKIHHHHHHMIYIGLTGWGDHDELYTMGTKPSEKLYTYGSHFPTVEVDSSFYAIQPKRNMEKWASDTPDCFRFVVKAYQGLTGHQRGEIPFSSKEDMFAAFVESLQPLLESNKLAMVLFQFPPWFDCTKEHVRYLRYCKQQMGKIPVALEFRHQSWFRPSVRERTLSFMREEGWIHSICDEPQGGEGSVPTVLVPSNEENVLVRFHGRNVEGWRRPQEGNWREVRYLYRYSKEELAEWAEHLKQLAAQVKDVYVLFNNNSGGDAAANAKQMLELLEIEYHGLTPKQLNLFE”, which “soluble on expression in E. coli” value is on record?
A: The value was “not soluble”.

Q: For “MGSDKIHHHHHHMLKIGPIEMKNQVVLAPMAGVCNPAFRLIAKEFGAGLVCAEMVSDKAILHKNEKSLSMLYVDEREKPLSLQIFGGEKETLVEAAKFVDKNTNADIIDINMGCPVPKITKCDAGARWLLDPNKIYDMVSAVVDEVDKPVTVKMRIGWDEEHIYAVENAQAVERAGGAAVAVHGRTRVQMYEGTADWNIIREVKQAVGIPVIGNGDVKTPQDAKRMLDEIGVDGVMIGRAALGNPWMLYRTIHYLETGELLPDPTPREKMDVCMIHLDRLIKLKGENVAVREMRKHAAWYLKGLRGNGKIRDQINQFETREDVSSTLYAYIEELEAKMAEKSASVV”, which “soluble on expression in E. coli” value is on record?
A: The value was “not soluble”.

Q: With “MGSDKIHHHHHHMSHGAIKHHRHRGRVMYHLRVPESAEDLDAYYQFRWEMLRKPLHQPLGSERDAYDALAHHQTVVDEQGRLVAIGRLSINADNEAAIRFLAVHPDLRGKGLGTLLAITLESVARQEGVKRVVCSAREDAMDFFSKLGFVNQGEISAPQTTPVRHFLMIKPVATLDDILHRADWCGQLQQAWYDHIPLSEKMGVRISQYTGKKFITTMPEAGNQNPHHTLFAGSMFSLATLTGWGLIWLLLRERHLGGTIILADAHIRYSTPVSGRPSAIADLGSLSGDLDRLARGRKARVQLNVELFGDDNKGALFEGVYIVLPAQPDAPLEEGGSEVD” as the sequence, how does the “soluble on expression in E. coli” value read?
A: Its value is “not soluble”.

Q: With “MATESALIKVHVKSPSNKYDVEIAADASVSELKDKVLVFVPTANKEQVCIIYTGKILKDEETLTQHKIADGHTVHLVIRNQARPTPAPAAATPTASSAPSSNPTPSSQPNPTNNPFAAMGGMGSPADILNNPDAMRSVMDNPITQQLLGNPEFMRTIIQSNPQFQALIERNPEVGHILNDPNVMRQTMEMIRNPNMFQEMMRNHDQAIRNLQGIPGGEAALERLYNDVQEPLLNSATNSLSGNPFASLRGDQSSEPRVDRAGQENNEALPNPWASNANQATNNQSNNRSADFNSLLDSPGISSLMEQMMSNPSMQASMFSPEVINSIRQNMSNNPGLIDSIVGQIPSARDNPQISEGIRRSFPQMLNMMSDPSVMEAMRNPRVSEAFRQIQEGFSTLRREAPQLLNLFQAGAMGGGAFGSDANASSAGANSANGLADLFNSMNMGGGRPSSTAAPVNPEQTYASQLEQLQSMGFSDRARNVAALTATFGDLNAAVERLLNSP” as the sequence, how does the “soluble on expression in E. coli” value read?
A: The value was “not soluble”.

Q: Which “soluble on expression in E. coli” value does the source give for “VRLSNPDILLNIHVSHEEVTLSLDSSGDSLHKRGYRVAETTAPLNEVLAAGILLKAGWDGSTDLIDPMCGSGTFLIEAALIACNIAPGIYRRGFAFQRWADFDLDLYDELFHDDSAERVFDHIIYGSDILPQAVAAARSNVERAGLGRYISLSVLPMQQRPKPESKAMLVMNPPYGERIKVEDMQQLYTMIGERLKHNYAGCSAWILAFKPEHFNHIGLRQSHREKLMNGALECELRGYELFEGRR” here?
A: Its value is “not soluble”.

Q: With “MSLNSMKDAFNREIDYVRLSLTDRCDLRCTYCMPATGLCFLKKEQLLTDDEIIFLLRILAKEDIKKVKLTGGEPLVRPNLLSLIKRIKQISGIEKVTLTTNGMKLAREAQGLKEAGLDGINISLDTLDPEEFREITRVGQLRNVLAGLEQAIDVGLPNIKINTVARKELSEATIVELAEIAKKETVHLRFIEMMPIGLGKEHPGKQQEEVEAILTKYYGTLQPYQKPLGNGPASYYALKDFKGKIGFISALGHCFCETCNRIRITADGHLKTCLHSADGYSLKEALAMEQTAELLGIIKSGIACKPEKHLFLEQQGEQRFMSQIGGEGHHHHHH” as the sequence, how does the “soluble on expression in E. coli” value read?
A: The value was “not soluble”.

Q: For “MSLNKIIHHYEVFKDFYGMEEPIEQIVGFLKHAAQGLEETKQVLYLLGPVGGGKSSIAEKLKDLMERIPFYAIKGSPVFESPLSLFNPLEDGELLRERFGIPTRYLRYLMSPWAVKRLQEYNGDISKFRVIKVKPSRLKQIAIAKTEPGDENNQDISSLVGKVDIRKLEEFSQDDPDAYSYSGGLCRANRGLLEFVEMFKAPIKVLHPLLTATQEGNYNATEGLSAIPFEGIILAHSNESEWQSFRNNKNNEAFIDRINIVKVPYCLRVSEEIKIYQKLIHNSSLANAPCAPGTLDMLAQFSVLTRLKEPQNSSIYSKMRVYNGESLKDTDPKAKSYQEYRDFAGVDEGMSGISTRFAFKILSKVFNFDHTEVAANPVHLMYVLERQIEQEQFPQELHETYLNFIKEYLATKYVDFIGKEIQTAYLESYSEYGQNIFDRYITYADFWIQDQDYRDPDTGEIFDRALLNLELEKIEKPAGISNPKDFRNEVVNFVLRARANNRGKNPVWNSYEKLKSVIEKKMFTNTEDLLPVISFNAKASEEDKKKHEEFISRMVEKGYTRKQVRLLCEWYLRVRKSQEGHHHHHH”, which “soluble on expression in E. coli” value is on record?
A: Its value is “not soluble”.

Q: Which “soluble on expression in E. coli” value does the source give for “MVENIPLAEEEHNKWHQDAVSLHLEFGIPRTAAEDIVQQCDVCQENKMPSTLRGSNKRGIDHWQVDYTHYEDKIILVWVETNSGLIYAERVKGETGQEFRVQTMKWYAMFAPKSLQSDNGPAFVAESTQLLMKYLGIEHTTGIPWNPQSQALVERTHQTLKNTLEKLIPMFNAFESALAGTLITLNIKRKGGLGTSPMDIFIFNKEQQRIQQQSKSKQE” here?
A: Its value is “soluble”.

Q: Which “soluble on expression in E. coli” value does the source give for “MTVEPFRNEPIETFQTEEARRAMREALRRVREEFGRHYPLYIGGEWVDTKERMVSLNPSAPSEVVGTTAKAGKAEAEAALEAAWKAFKTWKDWPQEDRSRLLLKAAALMRRRKRELEATLVYEVGKNWVEASADVAEAIDFIEYYARAALRYRYPAVEVVPYPGEDNESFYVPLGAGVVIAPWNFPVAIFTGMIVGPVAVGNTVIAKPAEDAVVVGAKVFEIFHEAGFPPGVVNFLPGVGEEVGAYLVEHPRIRFINFTGSLEVGLKIYEAAGRLAPGQTWFKRAYVETGGKDAIIVDETADFDLAAEGVVVSAYGFQGQKCSAASRLILTQGAYEPVLERVLKRAERLSVGPAEENPDLGPVVSAEQERKVLSYIEIGKNEGQLVLGGKRLEGEGYFIAPTVFTEVPPKARIAQEEIFGPVLSVIRVKDFAEALEVANDTPYGLTGGVYSRKREHLEWARREFHVGNLYFNRKITGALVGVQPFGGFKLSGTNAKTGALDYLRLFLEMKAVAERF” here?
A: The value was “soluble”.

Q: For “MIDERLKKDLAILPISTVRALTNLSDRQIRYYESQDLLTTKRGKGGQRRFSLNDVERLIEIRMMMESGDSLKDIHNLYETHRVSNRRNEKTEFVHSLENEFLKIGRLEKH”, which “soluble on expression in E. coli” value is on record?
A: Its value is “not soluble”.
